Patent US20140302055A1

Tests used:
[1] = target: Angiopoietin-like protein 4 (ANGPTL4), recombinant V5-his tagged secreted product (UniProt Q9BY76); test: SPR (BiaCore) low resolution, mAb captured on goat anti-human surface, ANGPTL4 at 292 nM, 25 C
[2] = target: Angiopoietin-like protein 4 (ANGPTL4), recombinant V5-his tagged secreted product (UniProt Q9BY76); test: SPR (BiaCore 2000) medium resolution, mAb captured on goat anti-human surface, ANGPTL4 6-198 nM (593 nM left out of the fit), 1:1 model with mass transport

Kd [1] | koff [1] | kon [1] | Kd [2] | koff [2] | kon [2] | Binder
11 nM | 0.00068 s⁻¹ | 63000 M⁻¹ s⁻¹ |  |  |  | anti-ANGPTL4 monoclonal antibody 1.10.2 (antibody, human IgG2, V domains shown) VH: QVQLVQSGAEVKKPGASVKDSCKASGFTFTSYGISWVRQAPGQGLEWMGWISAYNGNKNYAQKLQGRVTMTTDTSTSTAYMELRSLRSDDTAVYYCARDDCSRASCSYYYGMDVWGQGTAVTVSS VL: DIVMTQTPLSLAVTPGQPASISCKSSQSLLHSDRKTYLYWYLQKPGQPPQLLIYEVSNRFSGVPDRFSGSGSGTDFTLKISRVEAEDVGVYYCMQSIQLPWTFGQGTKVEIKR
16 nM | 0.0011 s⁻¹ | 67000 M⁻¹ s⁻¹ | 7.9 nM | 0.000786 s⁻¹ | 99800 M⁻¹ s⁻¹ | anti-ANGPTL4 monoclonal antibody 1.7.3 (antibody, human IgG2, V domains shown) VH: QVQLVESGGGVVQPGRSLRLSCAASGFTFSSYGIHWIRQAPGKGLEWVAVIWYDGSHKYYADSVKGRFTISRDNSKNTLYLQMNSLRAEDTAVYYCARDGITMVRGVLYYFYGMDVWGQGTTVTVSS VL: DIQMTQSPSSLSASVGDRVTITCRASQGISNYLAWYQQKPGKVPKLLIYAASTLQSGVPSRFSGSGSGTDFTLTISSLQPEDFATYYCQEFNSAPLTFGGGTKVEIKR
15 nM | 0.00071 s⁻¹ | 49000 M⁻¹ s⁻¹ |  |  |  | anti-ANGPTL4 monoclonal antibody 1.3.1 (antibody, part only; not given: light chain, human IgG2, V domains shown, part only) VH: EVQLVESGGGLIQPGGSLRLSCAASGFTVSTNYMSWVRQAPGKGLDWVSIIYSDDNTYYADSVKGRFTISRDNSKNTLYLQMNSLRAEDSAVYYCAGTGTTDYYYGLDVWGLGTTVTVSSA
